In article PMC4807281, “Glutathionylation of the Bacterial Hsp70 Chaperone DnaK Provides a Link between Oxidative Stress and the Heat Shock Response*” (The Journal of Biological Chemistry, 2016):
No end group written: not given here. *: point of attachment. FITC = O=C1OC2(c3ccc(O)cc3Oc3cc(O)ccc32)c2ccc(NC(=S)*)cc21

Tests used:
[1] = biological target: T1, DnaK, untreated control (E. coli, UniProt P0A6Y8 1-638); assay: pull-down; 2 μM His6-DnaJ, 5 μM His6-GrpE or 2 μM His6-Smt3-σ^32 with 20 μM DnaK, Buffer B, 1 mM ADP, 8 °C, 60 min; Ni-Sepharose HP; wash 300 mM KCl, 40 mM imidazole; elution 300 mM imidazole; SDS-PAGE, Coomassie; conditions: both partners purified
T1 sequence (P0A6Y8 whole entry): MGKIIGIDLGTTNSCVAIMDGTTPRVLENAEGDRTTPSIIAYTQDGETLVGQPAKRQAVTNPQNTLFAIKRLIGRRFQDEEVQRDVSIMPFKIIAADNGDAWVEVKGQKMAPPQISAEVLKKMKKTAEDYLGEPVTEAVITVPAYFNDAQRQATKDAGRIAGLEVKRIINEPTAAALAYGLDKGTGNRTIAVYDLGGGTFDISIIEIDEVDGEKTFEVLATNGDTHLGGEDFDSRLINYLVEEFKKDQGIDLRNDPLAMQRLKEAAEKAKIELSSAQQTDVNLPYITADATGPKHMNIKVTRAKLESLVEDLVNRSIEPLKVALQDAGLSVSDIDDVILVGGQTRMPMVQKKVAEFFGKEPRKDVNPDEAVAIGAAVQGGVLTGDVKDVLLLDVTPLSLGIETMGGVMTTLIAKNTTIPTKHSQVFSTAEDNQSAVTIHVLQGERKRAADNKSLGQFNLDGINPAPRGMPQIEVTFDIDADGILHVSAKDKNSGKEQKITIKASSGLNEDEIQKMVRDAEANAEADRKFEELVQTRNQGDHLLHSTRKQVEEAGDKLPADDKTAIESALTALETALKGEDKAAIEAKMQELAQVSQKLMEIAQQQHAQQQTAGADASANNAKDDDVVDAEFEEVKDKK

[2] = biological target: T2, DnaK, glutathionylated at Cys-15 (E. coli, UniProt P0A6Y8 1-638, S-glutathionylated cysteine at Cys-15); assay: as above; conditions: both partners purified
T2 construct: DnaK (bacterial Hsp70), E. coli, gene dnaK cloned from genomic DNA of E. coli C41 cells; primers from the start to the stop codon; the single cysteine Cys-15 carries glutathione; Modification reported as complete by Alexa Fluor 350 staining and mass spectrometry; also called glutathionylated DnaK; not shown: His6, N-terminal, cleaved; Smt3, N-terminal, cleaved
T2 sequence (P0A6Y8 whole entry): as above

[3] = biological target: T3, DnaK, deglutathionylated (E. coli, UniProt P0A6Y8 1-638); assay: as above; conditions: both partners purified
T3 construct: DnaK (bacterial Hsp70), E. coli, gene dnaK cloned from genomic DNA of E. coli C41 cells; primers from the start to the stop codon; also called deglutathionylated DnaK; not shown: His6, N-terminal, cleaved; Smt3, N-terminal, cleaved
T3 sequence (P0A6Y8 whole entry): as above

[4] = biological target: T1, DnaK, untreated control; assay: fluorescence polarisation; steady state; 20 nM FITC-…, increasing concentrations of DnaK, Buffer B, room temperature; ATP state; conditions: both partners purified
[5] = biological target: T1, DnaK, untreated control; assay: fluorescence polarisation; steady state; 20 nM FITC-…, increasing concentrations of DnaK, 60 min incubation, Buffer B (50 mM Tris-HCl pH 7.5, 100 mM KCl, 5 mM MgCl2), room temperature; apo or ADP state; single site binding model; conditions: both partners purified
[6] = biological target: T2, DnaK, glutathionylated at Cys-15; assay: as above; conditions: both partners purified
[7] = biological target: T3, DnaK, deglutathionylated; assay: as above; conditions: both partners purified
[8] = biological target: T1, DnaK, untreated control; assay: cell-based or functional assay
[9] = biological target: T2, DnaK, glutathionylated at Cys-15; assay: cell-based or functional assay

B1: His6-Smt3-σ^32 (natural protein, E. coli, UniProt P0AGB3 1-284, looked up)
chain: MTDKMQSLALAPVGNLDSYIRAANAWPMLSADEERALAEKLHYHGDLEAAKTLILSHLRFVVHIARNYAGYGLPQADLIQEGNIGLMKAVRRFNPEVGVRLVSFAVHWIKAEIHEYVLRNWRIVKVATTKAQRKLFFNLRKTKQRLGWFNQDEVEMVARELGVTSKDVREMESRMAAQDMTFDLSSDDDSDSQPMAPVLYLQDKSSNFADGIEDDNWEEQAANRLTDAMQGLDERSQDIIRARWLDEDNKSTLQELADRYGVSAERVRQLEKNAMKKLRAAIEA
notes: σ^32 subunit of RNA polymerase (heat shock sigma factor), E. coli, gene rpoH cloned from genomic DNA of E. coli C41 cells; primers from the start to the stop codon; The His6-Smt3 tag (pET28a-SMT3) was not cleaved from σ^32; order of the tags from the printed label; also called heat shock transcription factor σ^32; not shown: His6, N-terminal, kept; Smt3, N-terminal, kept
Does B1 bind [1]?
Result: binds

Does B1 bind [2]?
Result: binds

Does B1 bind [3]?
Result: binds

B2: FITC-ALLLSAPRR peptide (peptide)
peptide: {FITC}-ALLLSAPRR
notes: also called FAR
Which results are given for B2?
Kd [4]: ≥ 10000 nM; Kd [5]: 200 to 500 nM; Kd [6]: 4000 to 6000 nM; Kd [7]: 200 to 500 nM

B3: His6-GrpE (natural protein, E. coli, UniProt P09372 1-197, looked up)
chain: MSSKEQKTPEGQAPEEIIMDQHEEIEAVEPEASAEQVDPRDEKVANLEAQLAEAQTRERDGILRVKAEMENLRRRTELDIEKAHKFALEKFINELLPVIDSLDRALEVADKANPDMSAMVEGIELTLKSMLDVVRKFGVEVIAETNVPLDPNVHQAIAMVESDDVAPGNVLGIMQKGYTLNGRTIRAAMVTVAKAKA
notes: GrpE (nucleotide exchange factor of DnaK), E. coli, gene grpE cloned from genomic DNA of E. coli C41 cells; primers from the start to the stop codon; Uncleavable His6 tag from the mini pRSETa plasmid; not shown: His6, N-terminal, kept
Does B3 bind [1]?
Result: binds

Does B3 bind [2]?
Result: binds

Does B3 bind [3]?
Result: binds

B4: His6-DnaJ (natural protein, E. coli, UniProt P08622 1-376, looked up)
chain: MAKQDYYEILGVSKTAEEREIRKAYKRLAMKYHPDRNQGDKEAEAKFKEIKEAYEVLTDSQKRAAYDQYGHAAFEQGGMGGGGFGGGADFSDIFGDVFGDIFGGGRGRQRAARGADLRYNMELTLEEAVRGVTKEIRIPTLEECDVCHGSGAKPGTQPQTCPTCHGSGQVQMRQGFFAVQQTCPHCQGRGTLIKDPCNKCHGHGRVERSKTLSVKIPAGVDTGDRIRLAGEGEAGEHGAPAGDLYVQVQVKQHPIFEREGNNLYCEVPINFAMAALGGEIEVPTLDGRVKLKVPGETQTGKLFRMRGKGVKSVRGGAQGDLLCRVVVETPVGLNERQKQLLQELQESFGGPTGEHNSPRSKSFFDGVKKFFDDLTR
Which results are given for B4?
acceleration of ATP turnover of DnaK by DnaJ, malachite green ATPase assay, DnaJ to DnaK ratio 2:1 [8]: 6 fold; acceleration of ATP turnover of DnaK by DnaJ, malachite green ATPase assay, DnaJ to DnaK ratio 2:1 [9]: 2 fold
